In patent US8877469B2, “Method of drying biological material” (Enwave Corporation, priority 2004, dated 2014):

Experiments:
[1] = Water activity (Aqua lab water activity meter); format: physicochemical; conditions: REV, 10% SMP, 10 Torr (200 W)
Protocol: (§1) The puffed foam material was removed from the drier and packed in polyethylene bags. The final moisture content and water activity of the dried foams were measured after 24 hours of drying (allow the sample to equilibrate) using air oven method and Aqua lab water activity meter (model series 3, Decagon Device Inc., Washington, USA).
as §1, with “structure” for “material”
The water activity of the samples before microwave vacuum drying, immediately after drying and during storage was measured (Aqualab R Model series 3, Decagon Devices, Inc., Washington, USA).

[2] = system: Micrococcus luteus cell wall suspension; assay: Lysozyme activity, turbidity assay; format: biochemical; conditions: lysozyme-chitosan 1:3 pastes; for lysozyme enzymatic activity after drying: t-REV 300 Watts, 30 Torr, 10 min
Protocol: Lysozyme activity was determined by the turbidity assay method using freeze-dried Micrococcus luteus cell wall suspension.

[3] = cited from earlier work

Substance | aw [1] | increase in lysozyme activity after t-REV ([2]; before versus after t-REV) | lysozyme enzymatic activity after drying [2] | lysozyme enzymatic activity after drying ([2]; listed as Lysozyme) | retention during pelleting ([3]; encapsulated with hydrogenated vegetable oil and calcium stearate) | loss after the feed pelleting process ([3]; unprotected lysozyme, pelleting at 195° F.)
Bifidobacterium longum | 0.36 ± 0.01 |  |  |  |  | 
lysozyme: Lysozyme extracted from chicken egg-white (Neova Technologies Inc.) |  | about 10% | no enzymatic activity loss | retained its activity | up to 75% | More than 50%
